From patent US20240117030A1 (Pfizer, published 2024)
Where a chain is given by its changes, count along the chain named.

B1: IL13433-1270 (other)
heavy: EVQLVESGGGLVQPGGSLRLSCAASGFTFSSYWMYWVRQAPGKGLEWVAAITPNAGEDYYPESVKGRFTISRDNAKNSLYLQMNSLRAEDTAVYYCARGQYYYTKYSLGYWGQGTLVTVSSASTKGPSVFPKAPSSKSTSGGTAALGCLVKDYFPEPVTVSWNSGALTSGVHTFPAVLQSSGLYSLSSSVTVPSSSLGTQTYICNVNHKPSNTKVDKKVEPKSCDKTHTCPPCPAPEAAGAPSVFLFPPKPKDTLMISRTPEVTCVVVDVSHEDPEVKFNWYVDGVEVHNAKTKPREEQYNSTYRVVSVLTVLHQDWLNGKEYKCKVSNKALPAPIEKTISKAKGQPREPQVCTLPPSREEMTKNQVSLWCLVKGFYPSDIAVEWESNGQPENNYKTTPPVLDSDGSFFLYSKLTVDKSRWQQGNVFSCSVLHEALHSHYTQKSLSLSPGK
chain 1: DIQMTQSPSSLSASVGDRVTITCKASESVDHFGWSLVHWYQQKPGKAPKLLIYRASNLESGVPSRFSGSGSGTDFTLTISSLQPEDFATYYCQQSNEDPWTFGGGTKVEIKRTVAAPSVFIFPPSDEQLKSGTASVVCLLNNFYPREAKVQWKVDNALQSGNSQESVTEQDSKDSTYSLSSTLTLSKADYEKHKVYACEVTHQGLSSPVTKSFNRGECGGGGSEVTLRESGPALVKPTQTLTLTCTFSGFSLSNFGEGLSWIRQPPGKGLEWLAHIYWDDDKRYNPSLKSRLTISKDTSRNQVVLTMTNMDPVDTATYYCARRETVFYWYFDVWGQGTTVTVSSASTKGPSVFPEAPSSKSTSGGTAALGCLVKDYFPEPVTVSWNSGALTSGVHTFPAVLQSSGLYSLGSVVTVPSSSLGTQTYICNVNHKPSNTKVDKKVEPKSCDKTHTCPPCPAPEAAGAPSVFLFPPKPKDTLMISRTPEVTCVVVDVSHEDPEVKFNWYVDGVEVHNAKTKPREEQYNSTYRVVSVLTVLHQDWLNGKEYKCKVSNKALPAPIEKTISKAKGQPREPQVYTLPPCREEMTKNQVSLSCAVKGFYPSDIAVEWESNGQPENNYKTTPPVLDSDGSFFLVSKLTVDKSRWQQGNVFSCSVLHEALHSHYTQKSLSLSPGK
light 1: DIQMTQSPSSLSASVGDRVTITCRASQPIHNHLDWYQQKPGKAPKLLIYFGKNLQEGVPSRFSGSGSGTDFTLTISSLQPEDFATYYCFQYKKGWSFGGGTKVEIKRTVAAPSVFIFPPSDEQLKSGTASVSCLLNNFYPREAKVQWKVDNALQSGNSQESVTEQDSKDSTYSLDSTLTLSKADYEKHKVYACEVTHQGLSSPVTKSFNRGEC
light 2: DIQMTQSPSSLSASVGDRVTITCRASQSVDEEGDSYMNWYQQKPGKAPKLLIYAASNLESGVPSRFSGSGSGTDFTLTISSLQPEDFATYYCQQSNKDPPTFGGGTKVEIKRTVAAPSVFIFPPSDEQLKSGTASVSCLLNNFYPREAKVQWKVDNALQSGNSQESVTEQDSKDSTYSLKSTLTLSKADYEKHKVYACEVTHQGLSSPVTKSFNRGEC
chain 2: EVQLVESGGGLVQPGGSLRLSCAASGFTFSSYAMSWVRQAPGKGLEWVASISSGDTTYYPDSVKGRFTISRDNAKNSLYLQMNSLRAEDTAVYYCARNEGYYFGLTLWGQGTLVTVSSASTKGPSVFPLAPSSKSTSGGTAALGCLVKDYFPEPVTVSWNSGALTSGVHTFPAVLQSSGLYSLSSVVTVPSSSLGTQTYICNVNHKPSNTKVDKKVEPKSC
B2: IL13433-0005 (other)
heavy: EVTLRESGPALVKPTQTLTLTCTFSGFSLSNFGEGLSWIRQPPGKGLEWLAHIYWDDDKRYNPSLKSRLTISKDTSRNQVVLTMTNMDPVDTATYYCARRETVFYWYFDVWGQGTTVTVSSASTKGPSVFPEAPSSKSTSGGTAALGCLVKDYFPEPVTVSWNSGALTSGVHTFPAVLQSSGLYSLGSVVTVPSSSLGTQTYICNVNHKPSNTKVDKKVEPKSCDKTHTCPPCPAPEAAGAPSVFLFPPKPKDTLMISRTPEVTCVVVDVSHEDPEVKFNWYVDGVEVHNAKTKPREEQYNSTYRVVSVLTVLHQDWLNGKEYKCKVSNKALPAPIEKTISKAKGQPREPQVYTLPPCREEMTKNQVSLSCAVKGFYPSDIAVEWESNGQPENNYKTTPPVLDSDGSFFLVSKLTVDKSRWQQGNVFSCSVMHEALHNHYTQKSLSLSPGK
chain 1: DIQMTQSPSSLSASVGDRVTITCKASQNINKHLDWYQQKPGKAPKLLIYFTNNLQTGVPSRFSGSGSGTDFTLTISSLQPEDFATYYCFQYNQGWTFGGGTKVEIKRTVAAPSVFIFPPSDEQLKSGTASVVCLLNNFYPREAKVQWKVDNALQSGNSQESVTEQDSKDSTYSLSSTLTLSKADYEKHKVYACEVTHQGLSSPVTKSFNRGECGGGGSEVQLVESGGGLVQPGGSLRLSCAASGFTFSSYAMSWVRQAPGKGLEWVASISSGDTTYYPDSVKGRFTISRDNAKNSLYLQMNSLRAEDTAVYYCARNEGYYFGLTLWGQGTLVTVSSASTKGPSVFPKAPSSKSTSGGTAALGCLVKDYFPEPVTVSWNSGALTSGVHTFPAVLQSSGLYSLSSSVTVPSSSLGTQTYICNVNHKPSNTKVDKKVEPKSCDKTHTCPPCPAPEAAGAPSVFLFPPKPKDTLMISRTPEVTCVVVDVSHEDPEVKFNWYVDGVEVHNAKTKPREEQYNSTYRVVSVLTVLHQDWLNGKEYKCKVSNKALPAPIEKTISKAKGQPREPQVCTLPPSREEMTKNQVSLWCLVKGFYPSDIAVEWESNGQPENNYKTTPPVLDSDGSFFLYSKLTVDKSRWQQGNVFSCSVMHEALHNHYTQKSLSLSPGK
light 1: B1 light 2 with R24K, E32D, K97E
light 2: DIQMTQSPSSLSASVGDRVTITCKASESVDHFGWSLVHWYQQKPGKAPKLLIYRASNLESGVPSRFSGSGSGTDFTLTISSLQPEDFATYYCQQSNEDPWTFGGGTKVEIKRTVAAPSVFIFPPSDEQLKSGTASVSCLLNNFYPREAKVQWKVDNALQSGNSQESVTEQDSKDSTYSLDSTLTLSKADYEKHKVYACEVTHQGLSSPVTKSFNRGEC
chain 2: EVQLVESGGGLVQPGGSLRLSCAASGFTFSSYWMYWVRQAPGKGLEWVAAITPNAGEDYYPESVKGRFTISRDNAKNSLYLQMNSLRAEDTAVYYCARGHYYYTSYSLGYWGQGTLVTVSSASTKGPSVFPLAPSSKSTSGGTAALGCLVKDYFPEPVTVSWNSGALTSGVHTFPAVLQSSGLYSLSSVVTVPSSSLGTQTYICNVNHKPSNTKVDKKVEPKSC
B3: IL13433-0607 (other)
heavy: EVQLVESGGGLVQPGGSLRLSCAASGFTFSSYAMSWVRQAPGKGLEWVASISTGDTTYYPDSVKGRFTISRDNAKNSLYLQMNSLRAEDTAVYYCARNEGYYFGLTQWGRGTLVTVSSASTKGPSVFPKAPSSKSTSGGTAALGCLVKDYFPEPVTVSWNSGALTSGVHTFPAVLQSSGLYSLSSSVTVPSSSLGTQTYICNVNHKPSNTKVDKKVEPKSCDKTHTCPPCPAPEAAGAPSVFLFPPKPKDTLMISRTPEVTCVVVDVSHEDPEVKFNWYVDGVEVHNAKTKPREEQYNSTYRVVSVLTVLHQDWLNGKEYKCKVSNKALPAPIEKTISKAKGQPREPQVCTLPPSREEMTKNQVSLWCLVKGFYPSDIAVEWESNGQPENNYKTTPPVLDSDGSFFLYSKLTVDKSRWQQGNVFSCSVLHEALHSHYTQKSLSLSPGK
chain 1: DIQMTQSPSSLSASVGDRVTITCRASQPISKHLDWYQQKPGKAPKLLIYFTNNLQTGVPSRFSGSGSGTDFTLTISSLQPEDFATYYCFQYNQGWTFGGGTKVEIKRTVAAPSVFIFPPSDEQLKSGTASVVCLLNNFYPREAKVQWKVDNALQSGNSQESVTEQDSKDSTYSLSSTLTLSKADYEKHKVYACEVTHQGLSSPVTKSFNRGECGGGGSEVTLRESGPALVKPTQTLTLTCTFSGFSLSNFGEGLSWIRQPPGKGLEWLAHIYWDDDKRYSTSLKTRLTISKDTSRNQVVLTMTNMDPVDTATYYCARRETVFYWYFDVWGQGTTVTVSSASTKGPSVFPEAPSSKSTSGGTAALGCLVKDYFPEPVTVSWNSGALTSGVHTFPAVLQSSGLYSLGSVVTVPSSSLGTQTYICNVNHKPSNTKVDKKVEPKSCDKTHTCPPCPAPEAAGAPSVFLFPPKPKDTLMISRTPEVTCVVVDVSHEDPEVKFNWYVDGVEVHNAKTKPREEQYNSTYRVVSVLTVLHQDWLNGKEYKCKVSNKALPAPIEKTISKAKGQPREPQVYTLPPCREEMTKNQVSLSCAVKGFYPSDIAVEWESNGQPENNYKTTPPVLDSDGSFFLVSKLTVDKSRWQQGNVFSCSVLHEALHSHYTQKSLSLSPGK
light 1: B2 light 2 with K24R, S56D, N57S, S60T
light 2: B1 light 2 with N96H
chain 2: B2 chain 2
B4: IL4-1040 (antibody, human IgG1, kappa, V domains shown)
VH: EVTLRESGPALVKPTQTLTLTCTFSGFSLSNFGEGLSWIRQPPGKGLEWLAHIYWDDDKRYNPSLKSRLTISKDTSRNQVVLTMTNMDPVDTATYYCARRETVFYWYFDVWGQGTTVTVSS
VL: DIQMTQSPSSLSASVGDRVTITCRASQSVDEEGDSYMNWYQQKPGKAPKLLIYAASNLESGVPSRFSGSGSGTDFTLTISSLQPEDFATYYCQQSNKDPPTFGGGTKVEIKR

Assays:
Assay in all cases: cell-based or functional assay
human IL-4 = target: T1, human IL-4 (human, UniProt P05112 25-153)
T1 sequence (looked up): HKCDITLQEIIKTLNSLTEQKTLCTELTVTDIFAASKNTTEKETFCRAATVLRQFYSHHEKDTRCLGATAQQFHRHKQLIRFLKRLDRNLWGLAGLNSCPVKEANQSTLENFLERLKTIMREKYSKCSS

human IL-13 = human IL-13 (human, UniProt P35225 35-146)
Chain of human IL-13 (P35225 35-146 limits assumed): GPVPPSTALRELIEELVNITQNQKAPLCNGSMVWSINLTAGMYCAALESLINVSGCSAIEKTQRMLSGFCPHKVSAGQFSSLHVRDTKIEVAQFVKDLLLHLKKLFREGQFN

[1] = target: T2, recombinant human IL-33 (wild type, Ser112-Thr270) (human, UniProt O95760 112-270)
T2 sequence (looked up): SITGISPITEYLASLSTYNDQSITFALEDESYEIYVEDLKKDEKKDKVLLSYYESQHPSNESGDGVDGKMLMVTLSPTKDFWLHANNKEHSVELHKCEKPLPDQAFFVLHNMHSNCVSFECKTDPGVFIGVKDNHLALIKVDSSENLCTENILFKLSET

recombinant human IL-4 [2] = target: T3, recombinant human IL-4 (human, UniProt P05112 25-153)
T3 sequence (looked up): T1 sequence (looked up)

recombinant human IL-13 = recombinant human IL-13 (human, UniProt P35225 35-146)
Chain of recombinant human IL-13 (P35225 35-146 limits assumed): as the sequence (P35225 35-146 limits assumed) above

IL-33 mm2 = target: T4, IL-33 mm2 (human, UniProt O95760 112-270, limits assumed)
T4 sequence (looked up): T2 sequence (looked up) with C97S, C116S, C121S, C148S

recombinant human IL-4 [3] = target: T3, recombinant human IL-4; remark: listed apart in the source
recombinant human IL-4 [4] = target: T3, recombinant human IL-4; remark: listed apart in the source

IL-4 Induced CD23 Expression, potency of cytokine neutralization (recombinant human IL-4 [2])	IL-13 Induced CD23 Expression, potency of cytokine neutralization (recombinant human IL-13)	IL-33 mm2 Cys Activation of SEAP Reporter Cells, potency of cytokine neutralization (IL-33 mm2)	further results	Binder
–	–	–	a-hIL-4 bioassay IC50, pM) (human IL-4): 16.5 pM; a-hIL-13 bioassay (IC50, pM) (human IL-13): 7.58 pM; a-IL-33 bioassay (WT IL33) IC50 (pM) [1]: 12 pM	B1
0.0032 nM	0.0125 nM	0.045 nM	–	B2
0.0669 nM	0.0203 nM	0.182 nM	–	B3
–	–	–	IL-4 induced CD23 upregulation (IC50), parental IgG (recombinant human IL-4 [3]): 0.00323 nM; IC50 (median), IL-4 induced CD23 expression on human monocytes (recombinant human IL-4 [4]): 0.00323 nM	B4
